What was measured:
[1] = molecular target: T1, human IL-6 (human, UniProt P05231 30-212); assay: cell-based or functional assay
[2] = molecular target: T2, human IL-12 p40 subunit (human, UniProt P29460 23-328); assay: ELISA, human IL-12 p40 subunit coated on the plate; 13A8 is the anti IL-6 negative control [Binding to human IL-12 p40]
T2 construct: Coated on ELISA plates
T2 sequence (looked up): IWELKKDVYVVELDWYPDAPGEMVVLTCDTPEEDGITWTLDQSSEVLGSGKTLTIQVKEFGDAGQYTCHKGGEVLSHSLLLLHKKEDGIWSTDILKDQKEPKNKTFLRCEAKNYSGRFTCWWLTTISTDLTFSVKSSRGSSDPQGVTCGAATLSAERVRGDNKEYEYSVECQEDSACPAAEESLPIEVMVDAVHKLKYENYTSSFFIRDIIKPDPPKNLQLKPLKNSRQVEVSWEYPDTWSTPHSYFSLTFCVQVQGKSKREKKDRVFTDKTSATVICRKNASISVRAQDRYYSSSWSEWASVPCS

[3] = molecular target: T3, human IL-12 (human, UniProt P29459 23-219; P29460 23-328); assay: ELISA, human IL-12 coated on the plate; 13A8 is the anti IL-6 negative control [Binding to Human IL-12]
T3 construct: Bioassay used Prospec-Tany Cyt-362
T3 sequence (looked up) 1: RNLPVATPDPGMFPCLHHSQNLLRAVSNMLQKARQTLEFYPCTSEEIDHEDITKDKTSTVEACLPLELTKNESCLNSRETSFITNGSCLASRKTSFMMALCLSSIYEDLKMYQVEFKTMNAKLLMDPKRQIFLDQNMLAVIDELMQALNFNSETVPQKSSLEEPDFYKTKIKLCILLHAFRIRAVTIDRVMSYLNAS
T3 sequence (looked up) 2: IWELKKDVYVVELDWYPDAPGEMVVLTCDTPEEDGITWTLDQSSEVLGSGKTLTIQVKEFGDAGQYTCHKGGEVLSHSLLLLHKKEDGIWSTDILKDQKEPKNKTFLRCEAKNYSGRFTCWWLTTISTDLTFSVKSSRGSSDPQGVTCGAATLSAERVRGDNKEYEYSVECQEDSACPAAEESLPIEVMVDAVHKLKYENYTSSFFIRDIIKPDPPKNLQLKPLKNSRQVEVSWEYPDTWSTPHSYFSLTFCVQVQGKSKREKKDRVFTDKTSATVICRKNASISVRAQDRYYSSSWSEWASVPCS

[4] = molecular target: T1, human IL-6; assay: SPR (SensiQ Pioneer), mAb captured on protein G, IL-6 as analyte (3×FLAG-IL-6 or IL-6 CYT-213, 1-100 nM), 25 C, 1:1 model
[5] = molecular target: T4, monkey IL-12 (macaque) (macaque, UniProt P48091 23-219; P48095 23-328); assay: ELISA, monkey (macaque) IL-12 coated on the plate; 13A8 is the anti IL-6 negative control [Binding to Monkey IL-12]
T4 construct: also called macaque IL-12
T4 sequence (looked up) 1: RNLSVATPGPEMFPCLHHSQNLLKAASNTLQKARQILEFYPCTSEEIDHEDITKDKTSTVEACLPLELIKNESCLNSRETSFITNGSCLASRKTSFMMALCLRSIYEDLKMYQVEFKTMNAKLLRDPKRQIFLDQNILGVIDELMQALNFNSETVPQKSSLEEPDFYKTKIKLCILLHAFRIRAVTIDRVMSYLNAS
T4 sequence (looked up) 2: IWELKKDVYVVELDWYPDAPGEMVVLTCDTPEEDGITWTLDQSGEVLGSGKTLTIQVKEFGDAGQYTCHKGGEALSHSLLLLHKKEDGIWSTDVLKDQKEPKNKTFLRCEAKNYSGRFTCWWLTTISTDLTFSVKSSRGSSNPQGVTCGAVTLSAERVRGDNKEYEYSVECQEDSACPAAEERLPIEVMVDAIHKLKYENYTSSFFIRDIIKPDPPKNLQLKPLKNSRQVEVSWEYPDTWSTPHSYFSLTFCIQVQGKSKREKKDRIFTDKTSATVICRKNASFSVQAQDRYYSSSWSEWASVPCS

[6] = molecular target: T5, Primate IL-6 (Macaca mulatta, UniProt P51494); assay: cell-based or functional assay
T5 sequence (cytokine, looked up): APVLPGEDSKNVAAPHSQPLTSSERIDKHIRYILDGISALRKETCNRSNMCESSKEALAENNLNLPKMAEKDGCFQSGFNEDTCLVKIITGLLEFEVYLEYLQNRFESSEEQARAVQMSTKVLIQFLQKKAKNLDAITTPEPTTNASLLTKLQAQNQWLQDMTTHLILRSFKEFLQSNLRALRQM

B1: 13A8 chimeric mAb (antibody, V domains shown)
VH: QSVEESGGRLVTPGTPLTLTCTVSGIDLSSYDMSWVRQAPGKGLEWIGYIYTDSSTWYANWAKGRFTISKTSSTTVDLKMTSLTTEDTATYFCAKGSTDYAFDTRLDLWGPGTLVTVSS
VL: NIVMTQTPSPVSGAVGGTVTINCQASQSISNELSWYQQKPGQPPRLLIYRASTLTSGVSSRFKGSGAGTQFTLTISGVECADAATYYCQQGYNSNDVDNVFGGGTKVVVVR
notes: HEK293; also called 13A8 clone
- EC50, inhibition of IL-6 induced B9 cell proliferation [1]: 0.034 ng/mL
- binding result [2]: no binding
- binding result [3]: no binding
- Kd [4]: 0.218 nM
- koff [4]: 0.000138 s⁻¹
- kon [4]: 633000 M⁻¹ s⁻¹
- binding result [5]: no binding
- IC50 (read off the curve) (B9 proliferation, OD570-600) [6]: ~0.4 ng/mL

Reference: patent publication US20160194391A1 (AstraZeneca / MedImmune, published 2016)
